Reference: patent US20170283830A1

Target: CD117 (mast/stem cell growth factor receptor, proto-oncogene c-Kit protein) on CD117+ mouse bone marrow cells (mouse) (UniProt P05532)
Test: cell-based or functional assay

UniProt P05532, sequence (P05532 25-979): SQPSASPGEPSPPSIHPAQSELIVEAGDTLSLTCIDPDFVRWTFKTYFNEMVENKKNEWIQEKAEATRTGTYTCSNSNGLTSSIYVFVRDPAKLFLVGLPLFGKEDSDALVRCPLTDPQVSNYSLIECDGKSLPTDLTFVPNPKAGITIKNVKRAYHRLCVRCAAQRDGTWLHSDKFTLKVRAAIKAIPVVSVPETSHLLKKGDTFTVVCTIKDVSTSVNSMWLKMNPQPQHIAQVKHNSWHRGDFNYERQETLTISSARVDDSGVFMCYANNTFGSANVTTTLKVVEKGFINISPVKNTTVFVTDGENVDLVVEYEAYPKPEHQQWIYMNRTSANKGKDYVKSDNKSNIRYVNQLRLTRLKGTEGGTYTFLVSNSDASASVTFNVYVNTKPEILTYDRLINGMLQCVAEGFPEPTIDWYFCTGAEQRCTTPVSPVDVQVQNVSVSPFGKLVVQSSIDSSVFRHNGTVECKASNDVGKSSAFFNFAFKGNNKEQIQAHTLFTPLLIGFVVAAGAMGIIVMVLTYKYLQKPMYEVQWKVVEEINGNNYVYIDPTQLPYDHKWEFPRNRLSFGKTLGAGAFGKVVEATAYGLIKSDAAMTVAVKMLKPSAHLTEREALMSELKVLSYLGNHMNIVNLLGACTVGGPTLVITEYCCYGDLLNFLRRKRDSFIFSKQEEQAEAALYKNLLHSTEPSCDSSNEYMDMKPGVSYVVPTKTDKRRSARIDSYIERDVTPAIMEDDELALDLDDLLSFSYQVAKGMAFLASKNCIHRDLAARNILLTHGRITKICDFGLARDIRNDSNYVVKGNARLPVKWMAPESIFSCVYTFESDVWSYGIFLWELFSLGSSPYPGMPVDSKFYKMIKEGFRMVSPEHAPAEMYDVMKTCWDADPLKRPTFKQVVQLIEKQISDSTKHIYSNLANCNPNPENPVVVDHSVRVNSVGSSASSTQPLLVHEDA

HDR activity in CD117+ cells (recombination between reporter gene constructs): 2 fold
γtcPNA4/donor DNA-mediated gene editing in CD117+ cells (% GFP expressing cells, flow cytometry): 15%
Substance: Recombinant murine SCF, catalog #250-03, PeproTech (from UniProt P20826 26-189) (ligand)
